These results are taken from patent US20160039883A1 (AstraZeneca / MedImmune, published 2016).

In assay [1] the target is RSV fusion (F) protein on RSV virus (respiratory syncytial virus, UniProt P03420 26-574). Nature of the assay: cell-based or functional assay.
A further assay has as its target VLP019. The experiment in a line: ELISA, VLP-coated wells, 0.5 µg/ml palivizumab, OD relative to sF-coated wells. For orientation: An ELISA detects its analyte on a solid surface through an enzyme-linked reagent.
The target in the next assay is VLP099. The description is as above.
The next assay concerns the target VLP097. The assay is described as above.
A further assay has as its target VLP059. The description is as above.
The target in another assay is VLP098. The description is as above.

B1: palivizumab (antibody, V domains shown)
VH: QVTLRESGPALVKPTQTLTLTCTFSGFSLSTSGMSVGWIRQPPGKALEWLADIWWDDKKDYNPSLKSRLTISKDTSKNQVVLKVTNMDPADTATYYCARSMITNWYFDVWGAGTTVTVSS
VL: DIQMTQSPSTLSASVGDRVTITCKCQLSVGYMHWYQQKPGKAPKLLIYDTSKLASGVPSRFSGSGSGTEFTLTISSLQPDDFATYYCFQGSGYPFTFGGGTKLEIK
Take B1: in assay [1], the “PRNT as measured by the IC50 point” value is about 0.5 µg/mL. The “Palivizumab binding in vitro (sF = 100%)” value in the assay with VLP019 amounted to 100%; in the assay with VLP099 it was 95%; with VLP097, 112%; in the assay with VLP059 it was 83%; in the assay with VLP098 it was 47%.
